Data taken from patent US20240132624A1 (Ablynx, published 2024).

Columns and labels:
human FcRn/b2M [1] = target: T1, human FcRn/b2M (human, UniProt P61769 21-119, biotinylated); test: SPR pH 6.0;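 note: surface plasmon resonance kinetics at 25 °C, diluted periplasmic extracts injected over immobilized ligand surfaces, 120 s association then 600–3600 s dissociation, running buffer containing 150 mM NaCl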
T1 construct: bought recombinant biotinylated protein (ACRO FCM-H82W4 or Immunitrack ITF01); also called hFcRn; hFcRn/hb2M
Procedure: (§1) All kinetic measurements have been performed on ProteOn XPR36 (BioRad Laboratories, Inc.), MASS-2 (Sierra sensors, Gmbh) or SPR-32 (Bruker Corporation). […] The phytip purified periplasmic extracts were diluted 1:10 in running buffer (CPA+150 mM NaCl+0.005% Tw20 at pH 5.5, pH 6.0 or pH 7.4) and injected over the ligand surfaces (association: 120 s at 45 μL/min; dissociation: 600s-3600 s at 45 μL/min). Experiments were carried out at 25° C.

cyno FcRn/b2M [2] = target: T2, cyno FcRn/b2M (cyno, UniProt Q8SPV9 24-297; Q8SPW0 21-119, biotinylated); test: SPR pH 6.0;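 note: surface plasmon resonance kinetics at 25 °C, diluted periplasmic extracts injected over immobilized ligand surfaces, 120 s association then 600–3600 s dissociation, running buffer containing 150 mM NaCl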
T2 construct: bought recombinant biotinylated protein (Immunitrack ITF05 or ACRO FCM-C82W5); also called cFcRn; cFcRn/cb2M
T2 sequence (Q8SPV9 24-297 limits assumed, chain 1 of 2): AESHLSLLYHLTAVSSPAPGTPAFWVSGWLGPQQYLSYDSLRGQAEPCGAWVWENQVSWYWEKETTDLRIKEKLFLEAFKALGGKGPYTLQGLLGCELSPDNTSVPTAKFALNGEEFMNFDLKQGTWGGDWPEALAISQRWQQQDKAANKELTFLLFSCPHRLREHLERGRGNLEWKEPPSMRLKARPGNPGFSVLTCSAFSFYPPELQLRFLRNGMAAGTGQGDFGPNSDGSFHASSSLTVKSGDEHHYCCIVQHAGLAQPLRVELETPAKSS
T2 sequence (Q8SPW0 21-119 limits assumed, chain 2 of 2): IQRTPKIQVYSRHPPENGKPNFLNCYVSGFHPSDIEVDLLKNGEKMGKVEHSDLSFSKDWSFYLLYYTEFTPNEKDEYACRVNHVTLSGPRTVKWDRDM
Procedure: as §1

human FcRn/b2M [3] = target: T1, human FcRn/b2M; test: SPR pH 7.4;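 note: surface plasmon resonance kinetics, periplasmic extracts diluted 1:10 flowed over immobilized target at 25 °C, 120 s association then 600–3600 s dissociation, buffer with 150 mM NaCl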
Procedure: as §1

cyno FcRn/b2M [4] = target: T2, cyno FcRn/b2M; test: SPR pH 7.4;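 note: surface plasmon resonance kinetics, periplasmic extracts diluted 1:10 flowed over immobilized target at 25 °C, 120 s association then 600–3600 s dissociation, buffer with 150 mM NaCl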
Procedure: as §1

human FcRn/b2M [5] = target: T1, human FcRn/b2M; test: SPR off-rate; pH 7.4 vs pH 6.0;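 note: surface plasmon resonance with diluted periplasmic extracts flowed over ligand surfaces, 120 s association and 600–3600 s dissociation at 25 °C, running buffer containing 150 mM NaCl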
Procedure: as §1

cyno FcRn/b2M [6] = target: T2, cyno FcRn/b2M; test: SPR off-rate; pH 7.4 vs pH 6.0;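 note: surface plasmon resonance with diluted periplasmic extracts flowed over ligand surfaces, 120 s association and 600–3600 s dissociation at 25 °C, running buffer containing 150 mM NaCl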
Procedure: as §1

Binder | koff (human FcRn/b2M [1]) [s⁻¹] | koff (cyno FcRn/b2M [2]) [s⁻¹] | koff (human FcRn/b2M [3]) [s⁻¹] | koff (cyno FcRn/b2M [4]) [s⁻¹] | kd ratio pH 7.4/6.0 (human FcRn/b2M [5]) | kd ratio pH 7.4/6.0 (cyno FcRn/b2M [6])
T0263018B11 T57V (VHH, name in Kabat numbering, FLAG3-His6 tagged) VHH: EVQLVESGGGVVQPGGSLRLSCAASGFTFSSYAMYWVRQAPGKGLEWVSAISSGGGSVDYADSVKGRFTISRDNSKNTLYLQMNSLRPEDTALYYCAADTLYTSLTWYSYWGQGTLVTVSS | 0.00077 | 0.00064 | 0.034 | 0.027 | 44 | 42
T0263018B11 T57W (VHH, name in Kabat numbering, FLAG3-His6 tagged) VHH: EVQLVESGGGVVQPGGSLRLSCAASGFTFSSYAMYWVRQAPGKGLEWVSAISSGGGSWDYADSVKGRFTISRDNSKNTLYLQMNSLRPEDTALYYCAADTLYTSLTWYSYWGQGTLVTVSS | 0.0009 | 0.00073 | 0.033 | 0.028 | 37 | 38
T0263018B11 T96Q (VHH, name in Kabat numbering, FLAG3-His6 tagged) VHH: EVQLVESGGGVVQPGGSLRLSCAASGFTFSSYAMYWVRQAPGKGLEWVSAISSGGGSTDYADSVKGRFTISRDNSKNTLYLQMNSLRPEDTALYYCAADQLYTSLTWYSYWGQGTLVTVSS | 0.0026 | 0.002 | 0.091 | 0.092 | 35 | 46
T0263018B11 T96F (VHH, name in Kabat numbering, FLAG3-His6 tagged) VHH: EVQLVESGGGVVQPGGSLRLSCAASGFTFSSYAMYWVRQAPGKGLEWVSAISSGGGSTDYADSVKGRFTISRDNSKNTLYLQMNSLRPEDTALYYCAADFLYTSLTWYSYWGQGTLVTVSS | 0.0031 | 0.0024 | 0.16 | 0.2 | 52 | 83
T0263018B11 T96I (VHH, name in Kabat numbering, FLAG3-His6 tagged) VHH: EVQLVESGGGVVQPGGSLRLSCAASGFTFSSYAMYWVRQAPGKGLEWVSAISSGGGSTDYADSVKGRFTISRDNSKNTLYLQMNSLRPEDTALYYCAADILYTSLTWYSYWGQGTLVTVSS | 0.00069 | 0.00042 | 0.036 | 0.024 | 52 | 57
T0263018B11 T96A (VHH, name in Kabat numbering, FLAG3-His6 tagged) VHH: EVQLVESGGGVVQPGGSLRLSCAASGFTFSSYAMYWVRQAPGKGLEWVSAISSGGGSTDYADSVKGRFTISRDNSKNTLYLQMNSLRPEDTALYYCAADALYTSLTWYSYWGQGTLVTVSS | 0.0039 | 0.0029 | 0.14 | 0.16 | 36 | 55
T0263018B11 T96M (VHH, name in Kabat numbering, FLAG3-His6 tagged) VHH: EVQLVESGGGVVQPGGSLRLSCAASGFTFSSYAMYWVRQAPGKGLEWVSAISSGGGSTDYADSVKGRFTISRDNSKNTLYLQMNSLRPEDTALYYCAADMLYTSLTWYSYWGQGTLVTVSS | 0.0016 | 0.00097 | 0.067 | 0.047 | 42 | 49
T0263018B11 T96S (VHH, name in Kabat numbering, FLAG3-His6 tagged) VHH: EVQLVESGGGVVQPGGSLRLSCAASGFTFSSYAMYWVRQAPGKGLEWVSAISSGGGSTDYADSVKGRFTISRDNSKNTLYLQMNSLRPEDTALYYCAADSLYTSLTWYSYWGQGTLVTVSS | 0.0016 | 0.0012 | 0.053 | 0.053 | 33 | 44

Continued, values first:

koff (human FcRn/b2M [1]) [s⁻¹] | koff (cyno FcRn/b2M [2]) [s⁻¹] | koff (human FcRn/b2M [3]) [s⁻¹] | koff (cyno FcRn/b2M [4]) [s⁻¹] | kd ratio pH 7.4/6.0 (human FcRn/b2M [5]) | kd ratio pH 7.4/6.0 (cyno FcRn/b2M [6]) | Binder
0.0037 | 0.0032 | 0.14 | 0.18 | 38 | 56 | T0263018B11 T100bL (VHH, name in Kabat numbering, FLAG3-His6 tagged) VHH: EVQLVESGGGVVQPGGSLRLSCAASGFTFSSYAMYWVRQAPGKGLEWVSAISSGGGSTDYADSVKGRFTISRDNSKNTLYLQMNSLRPEDTALYYCAADTLYTSLLWYSYWGQGTLVTVSS
0.0092 | 0.0051 | 0.42 | 0.38 | 46 | 75 | T0263018B11 W100cG (VHH, name in Kabat numbering, FLAG3-His6 tagged) VHH: EVQLVESGGGVVQPGGSLRLSCAASGFTFSSYAMYWVRQAPGKGLEWVSAISSGGGSTDYADSVKGRFTISRDNSKNTLYLQMNSLRPEDTALYYCAADTLYTSLTGYSYWGQGTLVTVSS
0.00047 | 0.00036 | 0.021 | 0.014 | 45 | 40 | T0263018B11 T96V (VHH, name in Kabat numbering, FLAG3-His6 tagged) VHH: EVQLVESGGGVVQPGGSLRLSCAASGFTFSSYAMYWVRQAPGKGLEWVSAISSGGGSTDYADSVKGRFTISRDNSKNTLYLQMNSLRPEDTALYYCAADVLYTSLTWYSYWGQGTLVTVSS
0.01 | 0.0062 | 0.5 | 0.5 | 50 | 81 | T0263018B11 W100cA (VHH, name in Kabat numbering, FLAG3-His6 tagged) VHH: EVQLVESGGGVVQPGGSLRLSCAASGFTFSSYAMYWVRQAPGKGLEWVSAISSGGGSTDYADSVKGRFTISRDNSKNTLYLQMNSLRPEDTALYYCAADTLYTSLTAYSYWGQGTLVTVSS
0.0073 | 0.003 | 0.14 | 0.13 | 19 | 45 | T0263018B11 W100cD (VHH, name in Kabat numbering, FLAG3-His6 tagged) VHH: EVQLVESGGGVVQPGGSLRLSCAASGFTFSSYAMYWVRQAPGKGLEWVSAISSGGGSTDYADSVKGRFTISRDNSKNTLYLQMNSLRPEDTALYYCAADTLYTSLTDYSYWGQGTLVTVSS
0.00054 | 0.00035 | 0.024 | 0.017 | 45 | 50 | T0263018B11 T96Y (VHH, name in Kabat numbering, FLAG3-His6 tagged) VHH: EVQLVESGGGVVQPGGSLRLSCAASGFTFSSYAMYWVRQAPGKGLEWVSAISSGGGSTDYADSVKGRFTISRDNSKNTLYLQMNSLRPEDTALYYCAADYLYTSLTWYSYWGQGTLVTVSS
0.00071 | 0.00049 | 0.032 | 0.025 | 45 | 51 | T0263018B11 T100bE (VHH, name in Kabat numbering, FLAG3-His6 tagged) VHH: EVQLVESGGGVVQPGGSLRLSCAASGFTFSSYAMYWVRQAPGKGLEWVSAISSGGGSTDYADSVKGRFTISRDNSKNTLYLQMNSLRPEDTALYYCAADTLYTSLEWYSYWGQGTLVTVSS
0.0036 | 0.0024 | 0.16 | 0.15 | 44 | 63 | T0263018B11 W100cF (VHH, name in Kabat numbering, FLAG3-His6 tagged) VHH: EVQLVESGGGVVQPGGSLRLSCAASGFTFSSYAMYWVRQAPGKGLEWVSAISSGGGSTDYADSVKGRFTISRDNSKNTLYLQMNSLRPEDTALYYCAADTLYTSLTFYSYWGQGTLVTVSS
0.0064 | 0.0051 | 0.46 | 0.43 | 72 | 84 | T0263018B11 W100cL (VHH, name in Kabat numbering, FLAG3-His6 tagged) VHH: EVQLVESGGGVVQPGGSLRLSCAASGFTFSSYAMYWVRQAPGKGLEWVSAISSGGGSTDYADSVKGRFTISRDNSKNTLYLQMNSLRPEDTALYYCAADTLYTSLTLYSYWGQGTLVTVSS
